Measured values reported in US20240382677A1.

Target: recombinant human PD-1 dimer expressed with a C-terminal mouse IgG2a Fc tag (hPD-1-mFc) (human)
Experiment: competition ELISA, 1.5 nM hPD-1-mFc, coated hPD-L1-hFc; NBI

recombinant human PD-1 dimer expressed with a C-terminal mouse IgG2a Fc tag (hPD-1-mFc) (human), sequence (chain, as listed by the source limits assumed): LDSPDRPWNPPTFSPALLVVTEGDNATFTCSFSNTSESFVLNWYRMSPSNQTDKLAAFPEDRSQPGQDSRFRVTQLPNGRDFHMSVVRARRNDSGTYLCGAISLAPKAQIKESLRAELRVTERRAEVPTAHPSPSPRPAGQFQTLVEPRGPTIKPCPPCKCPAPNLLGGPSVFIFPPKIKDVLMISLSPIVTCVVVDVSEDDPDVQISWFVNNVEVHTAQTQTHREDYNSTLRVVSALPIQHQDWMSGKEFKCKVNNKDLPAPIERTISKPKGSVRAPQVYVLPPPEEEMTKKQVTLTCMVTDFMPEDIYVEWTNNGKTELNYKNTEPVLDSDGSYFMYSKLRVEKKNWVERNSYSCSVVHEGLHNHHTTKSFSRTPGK

Substance: Isotype control 2 (antibody)
- % blocking at 200 nM antibody: -18%
